Assay results as given in the supplement of paper PMC7877785.
± gives the uncertainty stated by the source.

Experiment: self-splicing fitness, log relative to wild type (ln ratio); higher = more splicing; Tetrahymena group I intron in knt gene, E. coli kanamycin selection, DiMSum; sequences stand for … in CUCUCU…GGAGGGAAAAGUUAUCAGGCAUGCACCUGGUAGCUAGUCUUUAAACCAAUAGAUUGCAUCGGUUUAAAAGGCAAGACCGUCAAAUUGCGGGAAAGGGGUCAACAGCCGUUCAGUACCAAGUCUCAGGGGAAACUUUGAGAUGGCCUUGCAAAGGGUAUGGUAAUAAGCUGACGGACAUGGUCCUAACCACGCAGCCAAGUCCUAAGUCAACAGAUCUUCUGUUGAUAUGGAUGCAGUUCACAGACUAAAUGUCGGUCGGGGAAGAUGUAUUCUUCUCAUAAGAUAUAGUCGGACCUCUCCUUAAUGGGAGCUAGCGGAUGAAGUGAUGCAACACUGGAGCCGCUGGGAACUAAUUUGUAUGCGAAAGUAUAUUGAUUAGUUUUGGAGUACUCGUGGUCG
Procedure, shortened: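 Library with all eight P1ex-region intron nucleotides randomised, intron inside the knt kanamycin-resistance gene on pET-22b(+), in E. coli BL21(DE3). Cells grew overnight at 37°C or 30°C on LB agar with or without 25 μg/mL kanamycin (plus 100 μg/mL carbenicillin, 50 μM IPTG, 0.2% rhamnose), in six replicate transformations. Pooled colonies were amplicon-sequenced on Illumina HiSeq 2500. DiMSum fitness is the error-weighted combination of wild-type-normalised replicate fold changes, kanamycin versus none.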

Sequence	self-splicing fitness (ln) (30 °C)	self-splicing fitness (ln) (37 °C)
ACGUAGCAAUAUUACGGUAA	-1.67 ± 0.2	-1.39 ± 0.14
ACGUAGCAAUAUUACGGUGG	-5.08 ± 0.28	-2.92 ± 0.16
ACGUAGCAAUAUUACGGUUC	-3.18 ± 0.17	-2.49 ± 0.31
ACGUAGCAAUAUUACGGUUG	-2.6 ± 0.1	-0.902 ± 0.12
ACGUAGCAAUAUUACGGUUU	-2.03 ± 0.096	-0.957 ± 0.11
ACGUAGCAAUAUUACGUAAG	-3.51 ± 0.17	-2.45 ± 0.22
ACGUAGCAAUAUUACGUAAU	-2.35 ± 0.13	-2.34 ± 0.15
ACGUAGCAAUAUUACGUCCU	-1.99 ± 0.13	-0.452 ± 0.13
ACGUAGCAAUAUUACGUCGG	-3.32 ± 0.33	-2.07 ± 0.2
ACGUAGCAAUAUUACGUCGU	-3.52 ± 0.15	-2.59 ± 0.15
ACGUAGCAAUAUUACGUGCA	-2.38 ± 0.17	-0.124 ± 0.096
ACGUAGCAAUAUUACGUUUG	-3.46 ± 0.17	-2.95 ± 0.18
ACUAAGCAAUAUUACGACGG	-0.271 ± 0.074	0.203 ± 0.094
ACUAAGCAAUAUUACGAGUA	-2.35 ± 0.17	-1.78 ± 0.18
ACUAAGCAAUAUUACGAUGA	-0.267 ± 0.068	-0.253 ± 0.076
ACUAAGCAAUAUUACGCAGA	-1.89 ± 0.092	-1.5 ± 0.083
ACUAAGCAAUAUUACGCAGG	-2.02 ± 0.088	-0.927 ± 0.092
ACUAAGCAAUAUUACGCCCU	0.438 ± 0.23	-0.36 ± 0.26
ACUAAGCAAUAUUACGCGGC	-3.74 ± 0.23	-1.85 ± 0.18
ACUAAGCAAUAUUACGCUUG	-3.11 ± 0.21	-2.1 ± 0.19
ACUAAGCAAUAUUACGGCAG	-1.71 ± 0.1	-0.238 ± 0.11
ACUAAGCAAUAUUACGGCCC	-0.668 ± 0.18	-0.484 ± 0.27
ACUAAGCAAUAUUACGGCCG	-0.147 ± 0.087	-0.306 ± 0.12
ACUAAGCAAUAUUACGGCGG	-0.98 ± 0.07	-0.452 ± 0.1
ACUAAGCAAUAUUACGUACA	-1.55 ± 0.086	-1.14 ± 0.087
ACUAAGCAAUAUUACGUACG	-1.76 ± 0.12	-0.814 ± 0.16

Sequence	self-splicing fitness (ln) (30 °C)	self-splicing fitness (ln) (37 °C)
ACUAAGCAAUAUUACGUCCA	-1.54 ± 0.12	-1.22 ± 0.16
ACUAAGCAAUAUUACGUCCU	-0.876 ± 0.095	0.0118 ± 0.14
ACUAAGCAAUAUUACGUCGC	-3.12 ± 0.18	-1.86 ± 0.2
ACUAAGCAAUAUUACGUCUU	-1.5 ± 0.075	-1.14 ± 0.078
ACUAAGCAAUAUUACGUUAG	-2.59 ± 0.13	-2.1 ± 0.17
ACUAAGCAAUAUUACGUUUC	-4.35 ± 0.26	-1.85 ± 0.19
ACUCAGCAAUAUUACGACAG	-1.94 ± 0.11	-0.382 ± 0.12
ACUCAGCAAUAUUACGAGCU	-1.04 ± 0.064	-0.447 ± 0.079
ACUCAGCAAUAUUACGAUUU	0.00163 ± 0.057	0.417 ± 0.073
ACUCAGCAAUAUUACGCAGC	-2.14 ± 0.079	-0.903 ± 0.093
ACUCAGCAAUAUUACGCAUA	-1.35 ± 0.082	-0.543 ± 0.094
ACUCAGCAAUAUUACGCAUU	-0.878 ± 0.049	-0.294 ± 0.06
ACUCAGCAAUAUUACGCCAG	-0.898 ± 0.087	-1.27 ± 0.15
ACUCAGCAAUAUUACGCCGU	-1.24 ± 0.076	-0.58 ± 0.093
ACUCAGCAAUAUUACGCCUG	-3.39 ± 0.22	-1.5 ± 0.2
ACUCAGCAAUAUUACGCGGU	-3.73 ± 0.19	-2.01 ± 0.21
ACUCAGCAAUAUUACGCGUG	-1.35 ± 0.073	-0.547 ± 0.081
ACUCAGCAAUAUUACGCUCA	-0.566 ± 0.096	0.105 ± 0.14
ACUCAGCAAUAUUACGCUCG	-0.26 ± 0.087	0.176 ± 0.12
ACUCAGCAAUAUUACGGCGG	-0.825 ± 0.078	-0.0415 ± 0.095
ACUCAGCAAUAUUACGGGAG	-1.56 ± 0.051	-1.11 ± 0.067
ACUCAGCAAUAUUACGGUCC	-1.91 ± 0.11	-0.708 ± 0.14
ACUCAGCAAUAUUACGUAGC	-1.24 ± 0.069	-0.786 ± 0.11
ACUCAGCAAUAUUACGUCAA	-2.56 ± 0.1	-1.78 ± 0.14
ACUCAGCAAUAUUACGUCGC	-2.57 ± 0.24	-0.332 ± 0.17
ACUCAGCAAUAUUACGUGGA	-1.96 ± 0.078	-1.54 ± 0.082

Sequence	self-splicing fitness (ln) (30 °C)	self-splicing fitness (ln) (37 °C)
ACUCAGCAAUAUUACGUGGU	-3.75 ± 0.12	-2.75 ± 0.12
ACUCAGCAAUAUUACGUUUC	-2.88 ± 0.17	-2.33 ± 0.21
ACUGAGCAAUAUUACGAAAA	–	-1.32 ± 0.43
ACUGAGCAAUAUUACGAAAC	-4.21 ± 0.42	-1.42 ± 0.38
ACUGAGCAAUAUUACGAAAG	-2.67 ± 0.15	-1.73 ± 0.18
ACUGAGCAAUAUUACGAAGC	–	-2.04 ± 0.46
ACUGAGCAAUAUUACGAAUC	-3.54 ± 0.36	-2.55 ± 0.21
ACUGAGCAAUAUUACGACCC	–	-0.357 ± 0.33
ACUGAGCAAUAUUACGACUC	-2.18 ± 0.16	-1.13 ± 0.2
ACUGAGCAAUAUUACGAGAC	-2.78 ± 0.22	-2.63 ± 0.2
ACUGAGCAAUAUUACGAGAU	-4.18 ± 0.33	-2.27 ± 0.21
ACUGAGCAAUAUUACGAGCC	-3.59 ± 0.4	–
ACUGAGCAAUAUUACGAUGC	-2.69 ± 0.16	-0.416 ± 0.15
ACUGAGCAAUAUUACGAUUU	-1.12 ± 0.082	-0.446 ± 0.12
ACUGAGCAAUAUUACGCAUA	-2.14 ± 0.31	-1.77 ± 0.44
ACUGAGCAAUAUUACGCCAC	–	-2.31 ± 0.35
ACUGAGCAAUAUUACGCUCU	-3.59 ± 0.2	-2.31 ± 0.24
ACUGAGCAAUAUUACGGCGG	-1.46 ± 0.1	-1.54 ± 0.13
ACUGAGCAAUAUUACGGCUA	-1.61 ± 0.15	-1.63 ± 0.16
ACUGAGCAAUAUUACGGGUA	-3.08 ± 0.24	-1.67 ± 0.14
ACUGAGCAAUAUUACGGGUC	-4.21 ± 0.27	-3.02 ± 0.33
ACUGAGCAAUAUUACGGGUG	-2.49 ± 0.15	-1.38 ± 0.15
ACUGAGCAAUAUUACGGGUU	-2.09 ± 0.1	-3.88 ± 0.28
ACUGAGCAAUAUUACGUGCA	-2.8 ± 0.2	-2.36 ± 0.25
